# Assay results published in patent US20210180089A1, “NANOPARTICLES FOR TRANSFECTION” (LOXEGEN HOLDINGS PTY LTD, priority 2018, published 2021).
# Ends that are not written are not given here.
# Assay: Average particle diameter of peptide/DNA nanoparticles by ZetaPALS dynamic light scattering
# Type: physicochemical
# Protocol: The DNA was diluted to 50-100 ug/mL in 5mM HEPES pH 7.4. A peptide solution at a concentration of 100-180 ug/mL in 5 mM HEPES was prepared. A 250 uL volume of the DNA solution was transferred into a 2 mL Eppendorf tube. Using a 100 uL peptide, an equal volume of the peptide solution was titrated, at an appropriate rate to avoid aggregation, into the DNA solution while vortexing. The solution slowly turns translucent and no visible particles should occur. The particle size is measured using a dynamic light scattering (DLS) instrument (such as the Brookhaven ZetaPALS). The particle size should be below 100 nm, preferably below 80 nm. The nanoparticles were filtered through a 0.22 um sterile filter. The formulation was stored in a refrigerator (2-8 deg C.) until desired for use and/or for PEGylation. Where PEGylated peptide/DNA nanoparticles are required, a PEG-Zn solution was prepared in a separate tube at a concentration of about 400 mg/mL. 25-100 uL of the PEG solution was slowly added to 500 uL of the peptide/DNA nanoparticle preparation, depending on the degree of PEG-coating required. The particle size was measured by DLS. The particle size should be about 100-140 nm depending on the amount of PEG added. The formulation was store in a refrigerator (2-8 deg C.). Above describes a range for the peptide/DNA ratio which can be used in one embodiment. In a preferred example, the ratios used for nanoparticle preparation were: 100 ug/mL DNA and 100 ug/mL peptide mixed at equal volume. PEGylation: 50 uL of 440 mg/mL PEG-IDA-Zn into 500 uL nanoparticles as prepared above.
Substance,"Average Particle Diameter (via ZETA Pals particle size analysis) (GFP, PEG)","Average Particle Diameter (via ZETA Pals particle size analysis) (GFP, non-PEG)","Average Particle Diameter (via ZETA Pals particle size analysis) (luciferase, PEG)","Average Particle Diameter (via ZETA Pals particle size analysis) (luciferase, non-PEG)"
"(H-Lys-His-Lys-His-His-Lys-His-His-Lys-His-His-Lys-His-His-Lys-His-His-Lys-His-Lys)4-Lys-Lys-Lys-His-His-His-His-Asn-His-His-His-His-OH (chain 1 H-KHKHHKHHKHHKHHKHHKHK; chain 2 KKKHHHHNHHHH-OH; also: four copies of chain 1 branched on core chain 2, attachment points not given here) [Peptide 2070, original peptide HK, 2:3 Lys:His, 4 branches]","127.4 nm (GFP, PEG)","66.0 nm (GFP, non-PEG)","94.5 nm (luciferase, PEG)","58.5 nm (luciferase, non-PEG)"
"(H-Lys-His-Lys-His-His-Lys-His-Lys-His-His-Lys-His-Lys-His-His-Lys-His-Lys-His-Lys)4-Lys-Lys-Lys-His-His-His-His-Asn-His-His-His-His-OH (chain 1 H-KHKHHKHKHHKHKHHKHKHK; chain 2 KKKHHHHNHHHH-OH; also: four copies of chain 1 branched on core chain 2, attachment points not given here) [Peptide 2597, 9:11 Lys:His]","90.9 nm (GFP, PEG)","54.7 nm (GFP, non-PEG)","86.0 nm (luciferase, PEG)","51.3 nm (luciferase, non-PEG)"
"(H-Lys-His-Lys-His-Lys-His-Lys-His-Lys-His-Lys-His-Lys-His-Lys-His-Lys-His-His-Lys)4-Lys-Lys-Lys-His-His-His-His-Asn-His-His-His-His-OH (chain 1 H-KHKHKHKHKHKHKHKHKHHK; chain 2 KKKHHHHNHHHH-OH; also: four copies of chain 1 branched on core chain 2, attachment points not given here) [Peptide 2596, 1:1 Lys:His]","124.1 nm (GFP, PEG)","82.1 nm (GFP, non-PEG)","77.4 nm (luciferase, PEG)","64.3 nm (luciferase, non-PEG)"
(H-Orn-His-Orn-His-His-Orn-His-His-Orn-His-His-Orn-His-His-Orn-His-His-Orn-His-Orn)4-Lys-Lys-Lys-His-His-His-His-Asn-His-His-His-His-OH [Peptide 2595],"101.3 nm (GFP, PEG)","73.7 nm (GFP, non-PEG)","70.9 nm (luciferase, PEG)","65.9 nm (luciferase, non-PEG)"
